# Biological target: E2F-1/Y411A (UniProt Q01094 1-437, Y411A)
# Experiment: co-IP
# Chain of E2F-1/Y411A (Q01094 whole entry Y411A): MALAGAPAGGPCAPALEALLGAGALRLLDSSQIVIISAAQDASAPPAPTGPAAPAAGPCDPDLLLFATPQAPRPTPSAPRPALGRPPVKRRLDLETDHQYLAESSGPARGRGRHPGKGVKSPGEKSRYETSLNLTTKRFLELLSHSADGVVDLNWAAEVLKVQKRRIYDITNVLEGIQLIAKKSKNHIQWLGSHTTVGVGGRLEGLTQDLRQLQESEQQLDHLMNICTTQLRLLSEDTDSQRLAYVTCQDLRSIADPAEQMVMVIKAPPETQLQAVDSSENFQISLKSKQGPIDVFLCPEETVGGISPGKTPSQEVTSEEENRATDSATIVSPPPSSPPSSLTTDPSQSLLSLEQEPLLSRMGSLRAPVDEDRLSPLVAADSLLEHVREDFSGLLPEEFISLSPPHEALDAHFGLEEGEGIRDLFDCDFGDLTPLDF
binder,measurement,value
"pRB (natural protein, mouse (endogenous in ψ-CRE), UniProt P13405 1-921, looked up) MPPKAPRRAAAAEPPPPPPPPPREDDPAQDSGPEELPLARLEFEEIEEPEFIALCQKLKVPDHVRERAWLTWEKVSSVDGILEGYIQKKKELWGICIFIAAVDLDEMPFTFTELQKSIETSVYKFFDLLKEIDTSTKVDNAMSRLLKKYNVLCALYSKLERTCELIYLTQPSSALSTEINSMLVLKISWITFLLAKGEVLQMEDDLVISFQLMLCVVDYFIKFSPPALLREPYKTAAIPINGSPRTPRRGQNRSARIAKQLENDTRIIEVLCKEHECNIDEVKNVYFKNFIPFINSLGIVSSNGLPEVESLSKRYEEVYLKNKDLDARLFLDHDKTLQTDPIDSFETERTPRKNNPDEEANVVTPHTPVRTVMNTIQQLMVILNSASDQPSENLISYFNNCTVNPKENILKRVKDVGHIFKEKFANAVGQGCVDIGVQRYKLGVRLYYRVMESMLKSEEERLSIQNFSKLLNDNIFHMSLLACALEVVMATYSRSTLQHLDSGTDLSFPWILNVLNLKAFDFYKVIESFIKVEANLTREMIKHLERCEHRIMESLAWLSDSPLFDLIKQSKDGEGPDNLEPACPLSLPLQGNHTAADMYLSPLRSPKKRTSTTRVNSAANTETQAASAFHTQKPLKSTSLALFYKKVYRLAYLRLNTLCARLLSDHPELEHIIWTLFQHTLQNEYELMRDRHLDQIMMCSMYGICKVKNIDLKFKIIVTAYKDLPHAAQETFKRVLIREEEFDSIIVFYNSVFMQRLKTNILQYASTRPPTLSPIPHIPRSPYKFSSSPLRIPGGNIYISPLKSPYKISEGLPTPTKMTPRSRILVSIGESFGTSEKFQKINQMVCNSDRVLKRSAEGGNPPKPLKKLRFDIEGADEADGSKHLPAESKFQQKLAEMTSTRTRMQKQRMNESKDVSNKEEK",fold less binding than E2F-1/wt,5 fold less
